B1: Compound 479 (peptide)
peptide: YXEGTXISDYSIXXDRXAQXNFVNWXLAQRPSSGAPPPSR
modifications: N-methyl on Tyr1 (Me-Tyr); Aib at 2, 13, 17, 20; Iva at 6, 26; Lys(Oda-GGGGGG-) at 14; C-terminal NH2
B2: Compound 484 (peptide)
peptide: YXEGTXISDYSIXXDRXHQXNFVNWXLAQRPSSGAPPPS
modifications: N-methyl on Tyr1 (Me-Tyr); Aib at 2, 13, 17, 20; Iva at 6, 26; Lys(Oda-GGGGGG-) at 14; C-terminal NH2
B3: Compound 491 (peptide)
peptide: YXEGTXISDYSIXLDRXHQXNFVNWXLAQRPSSGAPPPS
modifications: N-methyl on Tyr1 (Me-Tyr); Aib at 2, 13, 20; Iva at 6, 26; Lys(Oda-GGGGG-) at 17; C-terminal NH2
B4: Compound 492 (peptide)
peptide: YXEGTXISDYSIXLDRXHQXNFVNWXLAQRPSSGAPPPS
modifications: N-methyl on Tyr1 (Me-Tyr); Aib at 2, 13, 20; Iva at 6, 26; Lys(Oda-GGGGGG-) at 17; C-terminal NH2
B5: Compound 493 (peptide)
peptide: YXEGTXISDYSIXLDRXHQXNFVNWXLAQRPSSGAPPPS
modifications: N-methyl on Tyr1 (Me-Tyr); Aib at 2, 13, 20; Iva at 6, 26; Lys(Eda-GGGGG-) at 17; C-terminal NH2
B6: Compound 494 (peptide)
peptide: YXEGTXISDYSIXLDRXAQXNFVNWXLAQRPSSGAPPPS
modifications: N-methyl on Tyr1 (Me-Tyr); Aib at 2, 13, 20; Iva at 6, 26; Lys(Heda-GGGGGG-) at 17; C-terminal NH2
B7: Compound 495 (peptide)
peptide: YXEGTXISDYSIXLDRXAQXNFVNWXLAQRPSSGAPPPS
modifications: N-methyl on Tyr1 (Me-Tyr); Aib at 2, 13, 20; Iva at 6, 26; Lys(Hepda-GGGGGG-) at 17; C-terminal NH2
B8: Compound 496 (peptide)
peptide: YXEGTXISDYSIXLDRXAQXNFVNWXLAQRPSSGAPPPS
modifications: N-methyl on Tyr1 (Me-Tyr); Aib at 2, 13, 20; Iva at 6, 26; Lys(Oda-GGGGGG-) at 17; C-terminal NH2
B9: Compound 502 (peptide)
peptide: YXEGTXISDYSIXLDRXHQXNFVNWXLAQRPSSGAPPPS
modifications: N-methyl on Tyr1 (Me-Tyr); Aib at 2, 13, 20; Iva at 6, 26; Lys(Hepda-GGGGG-) at 17; C-terminal NH2
B10: Compound 503 (peptide)
peptide: YXEGTXISDYSIXLDRXHQXNFVNWXLAQRPSSGAPPPS
modifications: N-methyl on Tyr1 (Me-Tyr); Aib at 2, 13, 20; Iva at 6, 26; Lys(Heda-GGGGGG-) at 17; C-terminal NH2
B11: Compound 504 (peptide)
peptide: YXEGTXISDYSIXLDRXHQXNFVNWXLAQRPSSGAPPPS
modifications: N-methyl on Tyr1 (Me-Tyr); Aib at 2, 13, 20; Iva at 6, 26; Lys(Hepda-GGGGGG-) at 17; C-terminal NH2
B12: Compound 506 (peptide)
peptide: YXEGTXISDYSIXXDRXAQXNFVNWXLAQRPSSGAPPPSR
modifications: N-methyl on Tyr1 (Me-Tyr); Aib at 2, 13, 17, 20; Iva at 6, 26; Lys(Hepda-GGGGGG-) at 14; C-terminal NH2
B13: Compound 507 (peptide)
peptide: YXEGTXISDYSIXXDRXHQXNFVNWXLAQRPSSGAPPPS
modifications: N-methyl on Tyr1 (Me-Tyr); Aib at 2, 13, 17, 20; Iva at 6, 26; Lys(Heda-GGGGG-) at 14; C-terminal NH2
B14: Compound 508 (peptide)
peptide: YXEGTXISDYSIXXDRXHQXNFVNWXLAQRPSSGAPPPS
modifications: N-methyl on Tyr1 (Me-Tyr); Aib at 2, 13, 17, 20; Iva at 6, 26; Lys(Hepda-GGGGG-) at 14; C-terminal NH2
B15: Compound 509 (peptide)
peptide: YXEGTXISDYSIXXDRXHQXNFVNWXLAQRPSSGAPPPS
modifications: N-methyl on Tyr1 (Me-Tyr); Aib at 2, 13, 17, 20; Iva at 6, 26; Lys(Heda-GGGGGG-) at 14; C-terminal NH2
B16: Compound 510 (peptide)
peptide: YXEGTXISDYSIXXDRXHQXNFVNWXLAQRPSSGAPPPS
modifications: N-methyl on Tyr1 (Me-Tyr); Aib at 2, 13, 17, 20; Iva at 6, 26; Lys(Hepda-GGGGGG-) at 14; C-terminal NH2
B17: Compound 520 (peptide)
peptide: YXEGTXISDYSIXXDRXAQXNFVNWXLAQRPSSGAPPPSR
modifications: N-methyl on Tyr1 (Me-Tyr); Aib at 2, 13, 17, 20; Iva at 6, 26; Lys(Eda-GGGGGG-) at 14; C-terminal NH2
B18: Compound 521 (peptide)
peptide: YXEGTXISDYSIXXDRXHQXNFVNWXLAQRPSSGAPPPS
modifications: N-methyl on Tyr1 (Me-Tyr); Aib at 2, 13, 17, 20; Iva at 6, 26; Lys(Eda-GGGGGG-) at 14; C-terminal NH2
B19: Compound 522 (peptide)
peptide: YXEGTFISDYSIAXDRXHQXNFVNWXLAQRPSSGAPPPSR
modifications: not fully specified; N-methyl on Tyr1 (Me-Tyr); Aib at 2, 13, 17, 20; Iva at 6, 26; Lys(Eda-GGGGGG-) at 14; C-terminal NH2

Molecular target: human GLP-1R (human, UniProt P43220)
Experiment: cell-based or functional assay

Binder	Agonist activity (EC50, M) [M]
B1	> 1e-06
B2	> 1e-06
B3	> 1e-06
B4	> 1e-06
B5	> 1e-06
B6	> 1e-06
B7	> 1e-06
B8	> 1e-06
B9	> 1e-06
B10	> 1e-06
B11	> 1e-06
B12	> 1e-06
B13	> 1e-06
B14	> 1e-06
B15	> 1e-06
B16	> 1e-06
B17	> 1e-06
B18	> 1e-06
B19	> 1e-06

Source: patent US20180298070A1, “PEPTIDE COMPOUND” (Takeda Pharmaceutical Company Limited, published 2018)
